Laboratory results as given in publication PMC12435366, “Maleic anhydride derived diphosphines: adaptable chelators for receptor-targeted ^99mTc, ^64Cu and ^188Re radiotracers” (Chemical Science, 2025).

Legend:
in vivo = assay: in vivo; parameters: species or system mice; details: male, athymic nude (Crl:NU(NCr)-Foxn1nu), mouse, iv, total radioactivity
Procedure: (§1) The biodistribution of [^99mTcO2(DP^An-PSMAt)2]^+ and [^99mTcO2(DP^MEP-PSMAt)2]^+ was studied using SPECT/CT imaging and ex vivo biodistribution methods. In these studies, [^99mTcO2(DP^An-PSMAt)2]^+ and [^99mTcO2(DP^MEP-PSMAt)2]^+ were used directly from kit-based formulations, without further purification, mimicking procedures used in clinical radiopharmacies and nuclear medicine departments. Mice were injected with [^99mTcO2(DP^An-PSMAt)2]^+ or [^99mTcO2(DP^MEP-PSMAt)2]^+ (4–5 MBq), containing 3 μg (2.6 nmol) of DP^An-PSMAt or 3.5 μg (2.6 nmol) of (DP^MEP-PSMAt) via the tail-vein, and culled 2 h post-injection, followed by dissection, organ/tissue weighing and counting.
The biodistribution of [^99mTcO2(DP^An-PSMAt)2]^+ and [^99mTcO2(DP^MEP-PSMAt)2]^+ was further studied in (i) male SCID/Beige mice bearing DU145-PSMA+ prostate cancer xenografts (Fig. 8) and (ii) male nude mice bearing PSMA-expressing LNCaP prostate cancer xenografts (see SI). […]
(§2) 4.10 In vivo imaging and biodistribution (DU145-PSMA+ and LNCaP)
(§3) Preparation of tumour-bearing mice: All animal experiments were ethically reviewed by an Animal Welfare & Ethical Review Board at either King’s College London or Bart’s Cancer Institute and carried out in accordance with the Animals (Scientific Procedures) Act 1986 UK Home Office regulations governing animal experimentation. Subcutaneous prostate cancer xenografts were produced in SCID/beige mice (male, 7–12 weeks old) by injecting 4 × 10^6 DU145-PSMA+ or DU145 cells suspended in PBS (100 μL) on the right shoulder. Imaging and biodistribution studies were performed once a tumour had reached 5–10 mm in diameter (3–4 weeks after injection). Subcutaneous LNCaP prostate cancer xenografts were produced in athymic nude (Crl:NU(NCr)-Foxn1nu) mice (male, 6–7 weeks old) by injecting 5 × 10^6 LNCaP cells suspended in PBS:matrigel (1:1, 200 μL) on the right flank.
(§4) Biodistribution studies using 99mTc radiotracers were performed once a tumour had reached 150– 300 mm3 in volume (2–7 weeks after injection).
(§5) SCID/beige mice bearing DU145-PSMA+ prostate cancer tumour xenografts
(§6) SPECT/CT scanning and biodistribution studies: The 99mTc radiotracers (3.9–4.5 MBq, 3 mice per group, containing DPAn-PSMAt = 3.0 µg or DPMEP-PSMAt = 3.5 µg) were administered via tail vein injection under isoflurane anaesthesia. […]
(§7) in helical scanning mode). At 2 h post-injection, the animals were euthanized by cervical dislocation, organs/tissues harvested and weighed, and radioactivity counted using a gamma […]
(§8) ii. […] After scanning, the organs/tissues were harvested, weighed and radioactivity counted […]
(§9) Urine was collected and directly analysed by reverse-phase radio-HPLC (method 2). Data were analysed in GraphPad Prism 9 (version 9.1.1) and expressed as mean ± standard deviation (SD). […]

[1] = test system: DU145-PSMA+ prostate cancer xenografts; format: in vivo, mice; details: for tumour delineation in SPECT/CT scans: male SCID/Beige mice bearing DU145-PSMA+ xenografts, SPECT 15 to 120 min post-injection; for clearance from blood pool (SPECT/CT): mouse, in vivo
Procedure: as §1
SPECT/CT studies were undertaken in male SCID/Beige mice bearing DU145-PSMA+ prostate cancer xenografts administered [^99mTcO2(DP^An-PSMAt)2]^+ and [^99mTcO2(DP^MEP-PSMAt)2]^+. SPECT images were acquired from 15 to 120 min post-injection of radiotracer. […]
as §2, §3, §4, §5, §6, §7, §8, §9

| SMILES | tissue uptake at 2 h (in vivo; Kidney) | tissue uptake at 2 h (in vivo; Liver) | tumour delineation in SPECT/CT scans [1] | clearance from blood pool (SPECT/CT) [1] |
| --- | --- | --- | --- | --- |
| COc1ccc(P(/C(C(=O)O)=C(/C(=O)NCCOCCOCCOCCOCCC(=O)NCCCC[C@H](NC(=O)N[C@@H](CCC(=O)O)C(=O)O)C(=O)O)P(c2ccc(OC)cc2)c2ccc(OC)cc2)c2ccc(OC)cc2)cc1 [[^99mTcO2(DP^An-PSMAt)2]^+, metal not drawn] | 87.6 ± 13.3 %ID/g | 0.9 ± 0.15 %ID/g | could be delineated | rapidly cleared from the blood pool via a renal pathway |
| COCCOc1ccc(P(/C(C(=O)O)=C(/C(=O)NCCOCCOCCOCCOCCC(=O)NCCCC[C@H](NC(=O)N[C@@H](CCC(=O)O)C(=O)O)C(=O)O)P(c2ccc(OCCOC)cc2)c2ccc(OCCOC)cc2)c2ccc(OCCOC)cc2)cc1 [[^99mTcO2(DP^MEP-PSMAt)2]^+, metal not drawn] | 46.4 ± 23.2 %ID/g | 7.38 ± 3.98 %ID/g | could be delineated | rapidly cleared from the blood pool via a renal pathway |
